# Results taken from publication doi:10.1101/413294 (bioRxiv, 2018).
# Experiments:
# [1] = target: C3b (human, UniProt P01024); assay: SPR
# [2] = target: the molecule itself; assay: SAXS
# Sequence of C3b (P01024 23-667, chain 1 of 2): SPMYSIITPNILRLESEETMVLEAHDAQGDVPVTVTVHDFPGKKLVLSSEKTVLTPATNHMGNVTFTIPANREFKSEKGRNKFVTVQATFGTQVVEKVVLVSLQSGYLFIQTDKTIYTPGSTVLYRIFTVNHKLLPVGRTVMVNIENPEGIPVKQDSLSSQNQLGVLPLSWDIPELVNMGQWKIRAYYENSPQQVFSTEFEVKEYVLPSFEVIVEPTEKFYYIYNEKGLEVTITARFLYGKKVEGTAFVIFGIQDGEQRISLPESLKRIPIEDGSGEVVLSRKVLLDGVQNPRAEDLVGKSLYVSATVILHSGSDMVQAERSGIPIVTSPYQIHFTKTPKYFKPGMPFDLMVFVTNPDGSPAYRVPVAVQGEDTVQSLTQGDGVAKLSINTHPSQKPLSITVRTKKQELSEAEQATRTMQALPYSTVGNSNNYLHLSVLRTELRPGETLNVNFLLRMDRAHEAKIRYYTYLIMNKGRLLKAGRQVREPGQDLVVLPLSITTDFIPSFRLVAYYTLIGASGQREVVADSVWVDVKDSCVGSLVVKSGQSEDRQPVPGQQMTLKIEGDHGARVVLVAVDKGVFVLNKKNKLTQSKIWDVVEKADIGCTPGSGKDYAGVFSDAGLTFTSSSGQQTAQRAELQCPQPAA
# Sequence of C3b (P01024 749-1663, chain 2 of 2): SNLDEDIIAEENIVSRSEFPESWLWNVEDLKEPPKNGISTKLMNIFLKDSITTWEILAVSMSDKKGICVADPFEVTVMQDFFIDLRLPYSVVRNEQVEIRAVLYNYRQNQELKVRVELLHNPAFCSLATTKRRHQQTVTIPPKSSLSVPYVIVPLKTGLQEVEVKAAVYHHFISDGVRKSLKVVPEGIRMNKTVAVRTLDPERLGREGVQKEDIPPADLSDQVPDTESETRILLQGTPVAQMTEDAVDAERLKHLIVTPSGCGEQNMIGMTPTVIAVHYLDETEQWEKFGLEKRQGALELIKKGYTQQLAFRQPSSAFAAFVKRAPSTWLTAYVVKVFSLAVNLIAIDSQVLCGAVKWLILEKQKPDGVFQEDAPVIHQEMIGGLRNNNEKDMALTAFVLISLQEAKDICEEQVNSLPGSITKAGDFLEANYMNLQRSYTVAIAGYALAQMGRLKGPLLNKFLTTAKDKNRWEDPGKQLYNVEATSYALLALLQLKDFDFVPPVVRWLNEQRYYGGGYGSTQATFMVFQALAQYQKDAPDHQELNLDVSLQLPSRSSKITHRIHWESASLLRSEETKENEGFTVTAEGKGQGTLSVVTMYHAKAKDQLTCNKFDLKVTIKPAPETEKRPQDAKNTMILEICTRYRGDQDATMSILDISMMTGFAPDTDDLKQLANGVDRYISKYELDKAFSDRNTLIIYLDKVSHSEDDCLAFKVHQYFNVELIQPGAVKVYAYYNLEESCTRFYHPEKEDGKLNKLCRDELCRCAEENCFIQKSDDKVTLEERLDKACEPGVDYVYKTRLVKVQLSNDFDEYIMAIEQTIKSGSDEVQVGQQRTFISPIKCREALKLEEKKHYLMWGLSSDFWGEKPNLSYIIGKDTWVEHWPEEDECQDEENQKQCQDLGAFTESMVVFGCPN
Binder,binding result [1],stoichiometry N [2]
"Factor H (FH), plasma purified (natural protein) EDCNELPPRRNTEILTGSWSDQTYPEGTQAIYKCRPGYRSLGNVIMVCRKGEWVALNPLRKCQKRPCGHPGDTPFGTFTLTGGNVFEYGVKAVYTCNEGYQLLGEINYRECDTDGWTNDIPICEVVKCLPVTAPENGKIVSSAMEPDREYHFGQAVRFVCNSGYKIEGDEEMHCSDDGFWSKEKPKCVEISCKSPDVINGSPISQKIIYKENERFQYKCNMGYEYSERGDAVCTESGWRPLPSCEEKSCDNPYIPNGDYSPLRIKHRTGDEITYQCRNGFYPATRGNTAKCTSTGWIPAPRCTLKPCDYPDIKHGGLYHENMRRPYFPVAVGKYYSYYCDEHFETPSGSYWDHIHCTQDGWSPAVPCLRKCYFPYLENGYNQNYGRKFVQGKSIDVACHPGYALPKAQTTVTCMENGWSPTPRCIRVKTCSKSSIDIENGFISESQYTYALKEKAKYQCKLGYVTADGETSGSITCGKDGWSAQPTCIKSCDIPVFMNARTKNDFTWFKLNDTLDYECHDGYESNTGSTTGSIVCGYNGWSDLPICYERECELPKIDVHLVPDRKKDQYKVGEVLKFSCKPGFTIVGPNSVQCYHFGLSPDLPICKEQVQSCGPPPELLNGNVKEKTKEEYGHSEVVEYYCNPRFLMKGPNKIQCVDGEWTTLPVCIVEESTCGDIPELEHGWAQLSSPPYYYGDSVEFNCSESFTMIGHRSITCIHGVWTQLPQCVAIDKLKKCKSSNLIILEEHLKNKKEFDHNSNIRYRCRGKEGWIHTVCINGRWDPEVNCSMAQIQLCPPPPQIPNSHNMTTTLNYRDGEKVSVLCQENYLIQEGEEITCKDGRWQSIPLCVEKIPCSQPPQIEHGTINSSRSSQESYAHGTKLSYTCEGGFRISEENETTCYMGKWSSPPQCEGLPCKSPPEISHGVVAHMSDSYQYGEEVTYKCFEGFGIDGPAIAKCLGEKWSHPPSCIKTDCLSLPSFENAIPMGEKKDVYKAGEQVTYTCATYYKMDGASNVTCINSRWTGRPTCRDTSCVNPPTVQNAYIVSRQMSKYPSGERVRYQCRSPYEMFGDEEVMCLNGNWTEPPQCKDSTGKCGPPPPIDNGDITSFPLSVYAPASSVEYQCQNLYQLEGNKRITCRNGQWSEPPKCLHPCVISREIMENYNIALRWTAKQKLYSRTGESVEFVCKRGYRLSSRSHTLRTTCWDGKLEYPTCAKR",binds,
"factor H-related protein 2 (FHR-2), recombinant (natural protein) EAMFCDFPKINHGILYDEEKYKPFSQVPTGEVFYYSCEYNFVSPSKSFWTRITCAEEGWSPTPKCLRLCFFPFVENGHSESSGQTHLEGDTVQIICNTGYRLQNNENNISCVERGWSTPPKCRSTISAEKCGPPPPIDNGDITSFLLSVYAPGSSVEYQCQNLYQLEGNNQITCRNGQWSEPPKCLDPCVISQEIMEKYNIKLKWTNQQKLYSRTGDIVEFVCKSGYHPTKSHSFRAMCQNGKLVYPSCEEK",binds,
"factor H-related protein 5 (FHR-5), recombinant (natural protein) EGTLCDFPKIHHGFLYDEEDYNPFSQVPTGEVFYYSCEYNFVSPSKSFWTRITCTEEGWSPTPKCLRMCSFPFVKNGHSESSGLIHLEGDTVQIICNTGYSLQNNEKNISCVERGWSTPPICSFTKGECHVPILEANVDAQPKKESYKVGDVLKFSCRKNLIRVGSDSVQCYQFGWSPNFPTCKGQVRSCGPPPQLSNGEVKEIRKEEYGHNEVVEYDCNPNFIINGPKKIQCVDGEWTTLPTCVEQVKTCGYIPELEYGYVQPSVPPYQHGVSVEVNCRNEYAMIGNNMITCINGIWTELPMCVATHQLKRCKIAGVNIKTLLKLSGKEFNHNSRIRYRCSDIFRYRHSVCINGKWNPEVDCTEKREQFCPPPPQIPNAQNMTTTVNYQDGEKVAVLCKENYLLPEAKEIVCKDGRWQSLPRCVESTAYCGPPPSINNGDTTSFPLSVYPPGSTVTYRCQSFYKLQGSVTVTCRNKQWSEPPRCLDPCVVSEENMNKNNIQLKWRNDGKLYAKTGDAVEFQCKFPHKAMISSPPFRAICQEGKFEYPICE",binds,
"FH_(19-20), the C-terminal part of factor H (SCR 19-20), recombinant (domain or fragment) KDSTGKCGPPPPIDNGDITSFPLSVYAPASSVEYQCQNLYQLEGNKRITCRNGQWSEPPKCLHPCVISREIMENYNIALRWTAKQKLYSRTGESVEFVCKRGYRLSSRSHTLRTTCWDGKLEYPTCAKR",binds,
"factor H-related protein 1 (FHR-1), recombinant (natural protein) EATFCDFPKINHGILYDEEKYKPFSQVPTGEVFYYSCEYNFVSPSKSFWTRITCTEEGWSPTPKCLRLCFFPFVENGHSESSGQTHLEGDTVQIICNTGYRLQNNENNISCVERGWSTPPKCRSTDTSCVNPPTVQNAHILSRQMSKYPSGERVRYECRSPYEMFGDEEVMCLNGNWTEPPQCKDSTGKCGPPPPIDNGDITSFPLSVYAPASSVEYQCQNLYQLEGNKRITCRNGQWSEPPKCLHPCVISREIMENYNIALRWTAKQKLYLRTGESAEFVCKRGYRLSSRSHTLRTTCWDGKLEYPTCAKR",,2
